We go through one protein from patent US20250243274A1 (JIBE THERAPEUTICS, published 2025).

This data set concerns the molecule itself. As to the kind of experiment: SDS-PAGE, no laddering in the reduced lane.

B1: JIB34 (bispecific antibody)
heavy: QVQLQQPGAELVKPGASVKMSCKASGYTFTNYWINWVKQRPGQGLEWIGDIYPGGGITNYNEKFKTKATLTLDTSSSTVYMQLSSLTSEDSAVYYCSRSYGKYFDYWGQGTTLIVSSASTKGPSVFPLAPSSKSTSGGTAALGCLVKDYFPEPVTVSWNSGALTSGVHTCPAVLQSSGLYSLSSVVTVPSSSLGTQTYICNVNHKPSNTKVDKKVEPKSSDKTHTGGHHHHHH
light: DIKMTQSPSSMYASVGERVTITCKASQDIKSYLTWYQKKPWKSPRTLIFYSTRLADGVPSRFSGSGSGQDFSLTISSLESDDTATYYCLQHDESPFTFGGGTKLEIKRTVAAPSVFIFPPSDEQLKSGTASVVCLLNNFYPREAKVQWKVDNALQSGNSQESVTEQDSKDSTYSLCSTLTLSKADYEKHKVYACEVTHQGLSSPVTKSFNRGESGGGGSGGGGSGGGGSDIQMTQSPSSLSASVGDRVTITCRASQDIRNYLNWYQQKPGKAPKLLIYYTSRLESGVPSRFSGSGSGTDYTLTISSLQPEDFATYYCQQGNTLPWTFGQGTKVEIKGGGGSGGGGSGGGGSEVQLVESGGGLVQPGGSLRLSCAASGYSFTGYTMNWVRQAPGKGLEWVALINPTKGVSTYNQKFKDRFTISVDKSKNTAYLQMNSLRAEDTAVYYCARSGYYGDSDWYFDVWGQGTLVTVSS
notes: HP6017 Fab (bDS) with HzUCHT1 scFv on the light chain; also called anti-Fc HP6017 HzUCHT1 IgR
Turning to B1, the binding result is listed as “no binding”.
